# In publication PMC11005391, “Tetramerization is essential for the enzymatic function of the Pseudomonas aeruginosa virulence factor UDP-glucose pyrophosphorylase” (mBio, 2024):
# Residue numbers refer to the chain shown, from its start.
# B1: PaUGP N266D (enzyme)
# chain: MIKKCLFPAAGYGTRFLPATKAMPKEMLPVVNKPLIQYAVEEALEAGLSEIGIVTGRGKRSLEDHFDISYELEHQIRNTDKEKYLVGIRRLIDECTFAYTRQVEMKGLGHAILTGRPLIGDEPFAVVLADDLCLNLEGDSVLKQMVKLYNQFRCSIVAIQEVPPEETNKYGVIAGEMIRDDIFRVNTMVEKPKPEEAPSNLAIIGRYILTPDIFDLIEQTEPGKGGEIQITDALMKQAQDGCVLAYKFKGKRFDCGSAEGYIEATDFCYENLYKTGKAH
# notes: UDP-glucose pyrophosphorylase of Pseudomonas aeruginosa (galU), residues 1-279, point mutant of Strep-PaUGP; Same construct as m1; source: E. coli BL21(DE3), purified (Strep-Tactin Sepharose); not shown: Strep-tagII, N-terminal, kept
# B2: PaUGP H74A (enzyme)
# chain: B1 chain with H74A, D266N
# notes: as for B1
# B3: PaUGP Y70F (enzyme)
# chain: B1 chain with Y70F, D266N
# notes: as for B1
# B4: PaUGP R57A (enzyme)
# chain: B1 chain with R57A, D266N
# notes: as for B1
# B5: PaUGP K21Q (enzyme)
# chain: B1 chain with K21Q, D266N
# notes: as for B1
# B6: PaUGP K21A (enzyme)
# chain: B1 chain with K21A, D266N
# notes: UDP-glucose pyrophosphorylase of Pseudomonas aeruginosa (galU), residues 1-279, point mutant of Strep-PaUGP; source: E. coli BL21(DE3), purified (Strep-Tactin Sepharose); not shown: Strep-tagII, N-terminal, kept
# B7: PaUGP R101K (enzyme)
# chain: B1 chain with R101K, D266N
# notes: as for B1
# B8: PaUGP R57K (enzyme)
# chain: B1 chain with R57K, D266N
# notes: as for B1
# B9: PaUGP R101A (enzyme)
# chain: B1 chain with R101A, D266N
# notes: as for B1
# B10: Pseudomonas aeruginosa uridine diphosphate-glucose pyrophosphorylase, wild type (Strep-PaUGP) (enzyme)
# chain: B1 chain with D266N
# notes: UDP-glucose pyrophosphorylase (UGP, EC 2.7.7.9) of Pseudomonas aeruginosa, galU gene amplified from plasmid PaCD00006903; residues 1-279; no cleavage is reported; Crystallised with UDP-Glc and Mg2+; also called PaUGP WT; Strep-tagged PaUGP; source: E. coli BL21(DE3), purified (Strep-Tactin Sepharose); not shown: Strep-tagII, N-terminal, kept
# Molecular target: the molecule itself
# Test: SEC; Superdex 200 10/300 GL, 50 mM Tris-HCl pH 8.0, 300 mM NaCl, 10 mM MgCl2; oligomeric state calculated from elution volumes of proteins of known size; addition of UTP, Glc-1-P or UDP-Glc did not affect the oligomerization of the WT
row,Protein,stoichiometry N
1,B1,4.2
2,B2,3.7
3,B3,3.7

# Molecular target: Q9I291
# Test: as above
row,Protein,N of the monomer peak (minor peak)
1,B1,1.2
2,B2,1.3
3,B3,1.3

# Molecular target: the molecule itself
# Test: SEC; as a1, but the more diluted sample of mutants with dilution-dependent behaviour (footnote b of Table 1; broken lines in Fig. 5 and Fig. S9)
Protein,stoichiometry N,N of a minor peak
B4,2.4,–
B5,–,2.7
B6,–,2.3
B7,2.1,–
B8,3.2,–
B9,1.8,3.6

# Molecular target: the molecule itself
# Test: SEC; Superdex 200 10/300 GL, 50 mM Tris-HCl pH 8.0, 300 mM NaCl, 10 mM MgCl2; oligomeric state calculated from elution volumes of proteins of known size; addition of UTP, Glc-1-P or UDP-Glc did not affect the oligomerization of the WT
# Remark: another data set of the same source
row,Protein,stoichiometry N
1,B10,4

# Molecular target: the molecule itself
# Test: native gel or EMSA; blue native PAGE, uniform 12% polyacrylamide gel with 3.5% stacking gel, 13.5 ug of each protein loaded, Coomassie-stained bands
row,Protein,stoichiometry N
1,B4,4
2,B1,4
3,B2,4
4,B8,4
5,B3,4

# Molecular target: Q9I291
# Test: SEC; as a1, but the more diluted sample of mutants with dilution-dependent behaviour (footnote b of Table 1; broken lines in Fig. 5 and Fig. S9)
Protein,N of the monomer peak (minor peak),N of the monomer peak (main peak)
B4,1.2,–
B5,–,1.4
B6,–,1.2
B7,1.2,–
B8,1.2,–
B9,1.2,–

# Molecular target: the molecule itself
# Test: cell-based or functional assay
row,Protein,"In vitro activity (% of WT), EnzChek pyrophosphate assay, forward reaction"
1,B4,1.28 % of WT
2,B5,1.26 % of WT
3,B6,5 % of WT
4,B1,105 % of WT
5,B2,60.3 % of WT
6,B7,1.31 % of WT
7,B8,2.36 % of WT
8,B9,0.83 % of WT
9,B3,47.2 % of WT
